Experimental data as given in patent US20190330331A1 (BLOOM DIAGNOSTICS, published 2019).

Target: T1, recombinant yeast-expressed His-tagged full-length AMH comprising amino acids 26-560 of human AMH (human, UniProt P03971 26-560)
T1 construct: Bought protein (Antikörper Online, ABIN2524475); also called recombinant AMH; human Anti-Müllerian hormone
T1 sequence: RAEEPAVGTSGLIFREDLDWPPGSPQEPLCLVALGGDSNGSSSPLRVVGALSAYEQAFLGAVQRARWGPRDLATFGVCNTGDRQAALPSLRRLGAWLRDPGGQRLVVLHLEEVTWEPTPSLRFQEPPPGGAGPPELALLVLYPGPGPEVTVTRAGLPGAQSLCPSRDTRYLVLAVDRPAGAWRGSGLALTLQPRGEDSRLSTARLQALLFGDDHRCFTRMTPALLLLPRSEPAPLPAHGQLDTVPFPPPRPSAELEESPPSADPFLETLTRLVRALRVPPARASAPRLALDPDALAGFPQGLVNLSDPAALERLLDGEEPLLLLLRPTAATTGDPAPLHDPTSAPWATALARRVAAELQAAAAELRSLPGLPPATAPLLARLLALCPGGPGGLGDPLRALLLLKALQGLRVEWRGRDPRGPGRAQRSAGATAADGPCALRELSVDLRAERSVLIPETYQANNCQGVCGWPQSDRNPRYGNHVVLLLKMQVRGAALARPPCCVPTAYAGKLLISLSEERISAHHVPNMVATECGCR
Test: SPR (Biacore T200), AMH amine-coupled to the chip, antibody as analyte, bivalent-analyte model
Description: Surface-plasmon-resonance (SPR) measurements were performed using a Biacore T200 facility, control software version 2.0, and Series S sensor-chips carboxymethyl dextran chip type 5 (CMS, GE Healthcare Bio-Sciences AB, Uppsala, Sweden). The system was operating at 25° C. in running buffer HBSP (10 mmol/L 4-(2-hydroxyethyl)piperazine-1-ethanesulfonic acid (Hepes), 150 mmol/L NaCl., 0.05% Tween 20, pH 7.4). AMH was transferred to 10 mmol/L sodium acetate buffer pH 4.0 by passing it through a NAPS column (GE Healthcare) before immobilization by amine coupling (Biacore Sensor Surface Handbook). The carboxyl groups on the chip were activated with an mixture containing 200 mM 1-ethyl-3-(3-dimethylaminopropyl)-carbodiimide hydrochloride (EDC, Sigma-Aldrich) and 50 mM N hydroxysuccinimide (NHS, Fluka) for 180 s. AMH was then injected for 150 s at a concentration of 2.5 μg/mL in, at a flow of 10 μL/min and […]. Approximately 100 resonance units (RU) of AMH were covalently bound to the flow cell. Unreacted NHS esters were blocked with 1 mol/L ethanolamine pH 8.5 for 7 min. […] Association and dissociation rates and the binding constants of the antibodies were determined using the bivalent-analyte-binding model of the Biacore evaluation software (version 2.0). […]

- Kd: ~1 nM
B1: G170-FC5 (antibody, V domains shown)
VH: EVKLVESGGGLVKPGGSLKLSCAASGFIFSTYTMSWVRQTPGKRLEWVATISSGGSYTYYPDSVKGRFTISRDNAKNTLYLQMSSLRSEDTAMYYCTRHGSDYRYDGFDYWGQGTTLTVSS
VL: DILMTQSPASLSVSVGETVTITCRASENIYSNLAWYQQKQGKSPQLLVYAATNLADGVPSRFSGSGSGTQYSLKINSLQSEDFGSYYCQHFWGTPFTFGSGTKLEIK
notes: kappa primers were used for the VL; also called anti-AMH G170-FC5; anti-AMH antibody
